Results as given in publication PMC3171962.

Biological target: hisPcrH (Pseudomonas aeruginosa T3S chaperone PcrH with an N-terminal polyHis tag) (P. aeruginosa PAO1) (UniProt Q9I325)
Assay: SEC

Substance | stoichiometry N
PopB (native, untagged P. aeruginosa T3S translocator) (from UniProt Q9I324 1-390) (natural protein) | 1
PopD (native, untagged P. aeruginosa T3S translocator) (from UniProt Q9I323 1-295) (natural protein) | 1
